Like-named read-outs stand apart in the source and are kept apart here. Ends that are not written are not given here. Peptide text beside a SMILES is read from it. * marks the point of attachment. Cbz = O=C(OCc1ccccc1)*
Columns and labels:
[1] = biological target: PCSK9 binding to the LDLR EGFA domain (Homo sapiens, UniProt Q8NBP7); assay: In vitro PCSK9-LDLR(EGFA) competitive assay, plate coated with LDLR-EGFA domain; conditions: 100 or 10 μM peptide, 100 ng wild-type human His-tagged PCSK9, pH6.1, 2 h
PCSK9 binding to the LDLR EGFA domain, sequence (Q8NBP7 153-692): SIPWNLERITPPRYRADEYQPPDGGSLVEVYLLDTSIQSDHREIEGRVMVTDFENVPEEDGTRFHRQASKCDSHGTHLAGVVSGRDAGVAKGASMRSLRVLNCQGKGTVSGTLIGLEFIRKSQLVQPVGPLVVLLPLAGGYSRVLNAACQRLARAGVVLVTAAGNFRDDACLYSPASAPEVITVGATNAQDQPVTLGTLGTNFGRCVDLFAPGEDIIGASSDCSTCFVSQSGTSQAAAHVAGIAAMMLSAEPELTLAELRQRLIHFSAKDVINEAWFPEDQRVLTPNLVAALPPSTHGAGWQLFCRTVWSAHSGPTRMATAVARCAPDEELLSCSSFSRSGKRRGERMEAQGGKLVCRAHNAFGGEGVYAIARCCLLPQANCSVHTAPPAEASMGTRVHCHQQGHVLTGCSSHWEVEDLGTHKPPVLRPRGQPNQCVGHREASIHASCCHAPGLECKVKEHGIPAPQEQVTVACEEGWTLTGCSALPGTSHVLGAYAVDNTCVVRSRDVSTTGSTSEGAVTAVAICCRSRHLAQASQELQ
PCSK9 binding to the LDLR EGFA domain, sequence (Q8NBP7 31-152 partner limits assumed): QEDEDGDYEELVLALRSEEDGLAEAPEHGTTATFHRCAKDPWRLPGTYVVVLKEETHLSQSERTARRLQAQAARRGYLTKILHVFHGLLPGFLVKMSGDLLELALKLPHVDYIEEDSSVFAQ
Protocol: SEQ ID. NO. 4 peptide was dissolved to 10 mM (working dilution) in DMEM media (Wisent Cat. #319-005-CL). In a total of 100 μl reaction buffer (HEPES buffer containing NaCl, CaCl2), BSA and proclin 300, pH6.1), SEQ ID. NO. 4 were added to a final concentration of 100 or 10 μM together with 100 ng wild-type human recombinant His-tagged PCSK9. Reaction buffer was added to 96 wells coated with recombinant LDLR-EGFA domain (involved in PCSK9-LDLR interaction) and incubated at room temperature for 2 h on an orbital microplate shaker (300 rpm). Following incubation, wells were washed 4 times with wash buffer and biotinylated anti-His-tag monoclonal antibody was added into each well and incubated for 1 h at room temperature. Following incubation wells were washed 4 times, and HRP-conjugated streptatvidin was added to each well and incubated for 20 min. Following 4 washes, 100 μl substrate reagent (TMB, tetra-methylbenzidine) were added for 15 min to each wells and enzymatic reaction stopped by adding 100 μl stop solution (1N […]). For each well, absorbance at 450 nm and 540 nm was measure and relative PCSK9 binding to LDLR-EGFA was determined according to a standard curve (100 ng to 1.56 ng). Inhibitory activities of SEQ ID. […]

[2] = tested on: PCSK9-induce degradation of LDLR; assay: PCSK9-induced LDLR-EGFP degradation in GRP94 knockdown HEK293 cells with proteasome inhibitor; type: cell-based, human; conditions: 5 μM, HEK293, overnight
Protocol: FIG. 4: Knockdown of GRP94 increases LDLR degradation by PCSK9. At day 0, HEK293 cells were transfected either with a non-targeting siRNA (−) or with siRNAs against GRP94 (+). At day 1, cells were transfected with an empty vector (−) or with plasmids encoding for LDLR-EGFP (SEQ. ID. NO. 69) alone or in combination with PCSK9-mCherry (SEQ. ID. NO. 70). At day 2, cells were washed and incubated overnight with DMSO (−) or 5 μM MG132 overnight in complete media. (a) Total LDLR-EGFP, PCSK9-mCherry, GRP94 and β-actin protein levels were analyzed by immune-blotting in cell lysates as indicated. (b) LDLR-GFP and PCSK9-mCherry were visualized in live cells by confocal microscopy as conditions described above. Data are representative of at least three independent experiments.
To decipher the role of GRP94 on PCSK9, we took advantage of HEK293 cells, as they are easily transfectable in addition to be PCSK9-negative. (Seidah et al., 2003) Cells were transfected with either non-targeting siRNA (−) or with siRNAs against human GRP94 (+) and 24 h later without (−) or plasmids encoding for fluorescent PCSK9-mCherry or LDLR-EGFP (FIG. 4). Twenty-hours post cDNA transfections, cells were incubated either with vehicle (DMSO) or 5 μM MG132, a proteasome inhibitor.

PCSK9-V5 = biological target: T1, PCSK9-V5 (Homo sapiens, UniProt Q8NBP7); assay: Co-immunoprecipitation of GRP94 constructs with PCSK9-V5 in transfected HEK293 cells; type: binding
T1 construct: Full-length human V5-tagged PCSK9 and LDLR were subcloned into pIRES2-EGFP; expressed in transfected cells; host or cells: HEK293
T1 sequence (Q8NBP7 153-692): as the sequence (Q8NBP7 153-692) above
Protocol: FIG. 2: Mapping of the PCSK9-GRP94 interacting domain. (a-b) HEK293 cells were transfected without (−) or with (+) PCSK9-V5 or SEQ ID NO. 66, 64 or 65. A PCSK9 V5 epitope-tag fusion protein (PCSK9-V5) was immune-precipitated from cell lysates using mAb-V5 antibody (IP: V5) and immune-blotted as indicated. Total GRP94 (SEQ. ID. NO. 3) and PCSK9 (SEQ. ID. NO. 1) protein levels were analyzed by immune-blotting in cell lysates (input) and conditioned media. (c) Left panel; HEK293 cells were transfected without (−) or with (+) PCSK9-V5, SEQ. ID. NO. 66 or 46. PCSK9-V5 was immune-precipitated for cell lysates (IP: V5) and immune-blotted (IB) as indicated. Total GRP94 and PCSK9 protein levels were also analyzed by immune-blotting and herein used as a control (input). Right panel; GRP94 homodimer (gray and yellow) crystal structure was determined from PDB file #2O1V using MacPymol software. […] 6 in which critical residues for PCSK9 binding determined in (b) are indicated in blue for SEQ. ID. NO. 64 and red for SEQ. ID. NO. 65. Data are representative of at least three independent experiments.
For identification of novel PCSK9 interactors, HepG2 or Huh-7 cells (55 cm2) were washed three times in phosphate-buffered saline (PBS) and incubated with 1 mM dithiobis[succinimidylpropionate] (DSP; Cat. #22585, Thermo Scientific), a thiol-cleavable cross-linking reagent, for 30 min at room temperature and subsequently switch for 15 min into a stop solution (15 mM Tris, pH 7.5). Cells were then lysed in complete radio-immune precipitation assay (RIPA) buffer (50 mM Tris/HCl, pH 8.0, 1% (v/v) Nonidet P40, 0.5% sodium deoxycholate, 150 mM NaCl and 0.1% (v/v) sodium dodecyl sulfate (SDS)) supplemented with a complete protease inhibitor mixture (Cat. #11 697 498 001, Roche Applied Science), passed 25 times through a 22-gauge needle and centrifuged at 11,000 g for 15 min at 4° C. Supernatants were incubated and rotated overnight with pre-immune serum, rabbit anti-hPCSK9 (amino acids 31-454) (1:250; Dr. Nabil Seidah, Clinical Research Institute of Montreal) or mouse anti-V5-tag (1:500; Cat. #R96025, Life Technologies) together with 50 μl protein A/G PLUS-agarose (Cat. #sc-2003, Santa Cruz). Following overnight incubation, beads were washed six times in RIPA buffer and resuspended in 75 μl Laemmli sample buffer. Co-immunoprecipitated (Co-IP) proteins were separated by 8% SDS-polyacrylamide gel electrophoresis and visualized using the Pierce silver stain kit (Cat. #24600, Thermo Scientific) according the manufacturer's instructions. All other Co-IP experiments were performed as described without the cross-linking step and in SDS-deprived RIPA buffer. HA-tagged proteins and GRP94 were immunoprecipitated with mouse anti-HA-tag (1:500; Cat. #H3663, Sigma-Aldrich) or rat anti-Grp94 (9G10, 1:1000; Cat. #ADI-SPA-850, Enzo Life Sciences).
We next decided to map GRP94 domain(s) important for PCSK9 protein-protein interaction. The overall domain structure of GRP94 includes a signal polypeptide (amino acids; aa1-21) followed by a N-terminal enzymatic ATP-binding domain (aa22-651), client-binding domain (CBD; aa652-678), C-terminal dimerization domain (aa679-799) and a KDEL polypeptide sequence (aa800-803) allowing retention of GRP94 in the endoplasmic reticulum. (Dollins et al., 2007; Maki et al., 1990; Wu et al., 2012) Thus, we first generated cDNA constructs encoding secretable HA-tagged forms of human GRP94 lacking its C-terminal KDEL polypeptide (SEQ ID. NO. 66; FIG. 2). HEK293 cells were transfected without or with SEQ ID. NO. 66 in absence or presence of PCSK9-V5 (FIG. 2a). […] NO. 66 is well expressed (Input; IB: HA) and secreted into media and that SEQ ID. NO. […] It was reported that a 27 aa C-terminal hydrophobic loop structure within GRP94 client-binding domain (CBD, amino acids aa652-678; ^652[…], SEQ ID. NO. 4) was important for folding and interaction with Toll-like receptors and integrins. (Wu et al., 2012) Deletion or alanine-scan mutations in SEQ ID. […]

[3] = tested on: LDLR degradation induced by overexpression of PCSK9; assay: LDLR degradation after co-expression with PCSK9-V5 (intracellular pathway), immunoblot; type: cell-based, human
Protocol: FIG. 7: SEQ ID NO. 6 prevents PCSK9-induced LDLR degradation. (a) Left; Coomassie staining of purified recombinant SEQ ID NO. 6 and PCSK9 separated by SDS-PAGE is shown. Right; HepG2 cells were incubated in DMEM without or with 0, 25, 100 or 250 nM SEQ ID NO. 6 alone or in presence of recombinant PCSK9. (b) HepG2 cells were transfected without (−) or with PCSK9-V5 in absence (−) or presence SEQ ID NO. 66 or SEQ ID NO. 46. Total LDLR, PCSK9, SEQ ID NO. 66, SEQ ID NO. 46 and β-actin protein levels were analyzed by immunoblotting in cell lysates and conditioned media as indicated. Data are representative of at least three independent experiments.
We next tested whether SEQ ID. NO. 6 could alter the capacity of PCSK9 to induce LDLR degradation. HepG2 cells were incubated overnight with an increasing amount of recombinant SEQ ID. NO. 6 in absence or presence of exogenous PCSK9 (FIG. 7a). […] NO. […] Although that SEQ ID. NO. […] NO. […] (Poirier et al., 2009) As PCSK9 was also shown to induce LDLR degradation via an intracellular pathway, (Poirier et al., 2009) we evaluated to ability of SEQ ID. NO. 66 or SEQ ID. NO. 46 to neutralize PCSK9 in HepG2 cells following co-expression (FIG. 7b). Similar to the extracellular pathway (FIGS. 5b and 7a), both SEQ ID. NO. 66 and SEQ ID. NO. […] NO. 66 and specifically SEQ ID. NO. […]

YGWSGNMERIMKAQAYQTGKDISTNYY (YGWSGNMERIMKAQAYQTGKDISTNYY-NH2) [SEQ ID. NO. 4]
Inhibition of binding of PCSK9 to the LDLR EGFA domain [1]: inhibit binding of PCSK9 to the LDLR EGFA domain
Inhibition of binding of PCSK9 to the LDLR EGFA domain ([1]; listed as SEQ. ID. NO. 4): inhibits binding of PCSK9 to the LDLR EGFA domain

CC(C)C[C@@H](C=O)NC(=O)[C@H](CC(C)C)NC(=O)[C@H](CC(C)C)NC(=O)OCc1ccccc1 [MG132] (Cbz-Leu-Leu-Leu-aldehyde)
Block of PCSK9-induced LDLR degradation after GRP94 knockdown [2]: not blocked

B1: SEQ ID. NO. 66: secretable HA-tagged form of human GRP94 lacking its C-terminal KDEL sequence (protein)
chain: MRALWVLGLCCVLLTFGSVRADDEVDVDGTVEEDLGKSREGSRTDDEVVQREEEAIQLDGLNASQIRELREKSEKFAFQAEVNRMMKLIINSLYKNKEIFLRELISNASDALDKIRLISLTDENALSGNEELTVKIKCDKEKNLLHVTDTGVGMTREELVKNLGTIAKSGTSEFLNKMTEAQEDGQSTSELIGQFGVGFYSAFLVADKVIVTSKHNNDTQHIWESDSNEFSVIADPRGNTLGRGTTITLVLKEEASDYLELDTIKNLVKKYSQFINFPIYVWSSKTETVEEPMEEEEAAKEEKEESDDEAAVEEEEEEKKPKTKKVEKTVWDWELMNDIKPIWQRPSKEVEEDEYKAFYKSFSKESDDPMAYIHFTAEGEVTFKSILFVPTSAPRGLFDEYGSKKSDYIKLYVRRVFITDDFHDMMPKYLNFVKGVVDSDDLPLNVSRETLQQHKLLKVIRKKLVRKTLDMIKKIADDKYNDTFWKEFGTNIKLGVIEDHSNRTRLAKLLRFQSSHHPTDITSLDQYVERMKEKQDKIYFMAGSSRKEAESSPFVERLLKKGYEVIYLTEPVDEYCIQALPEFDGKRFQNVAKEGVKFDESEKTKESREAVEKEFEPLLNWMKDKALKDKIEKAVVSQRLTESPCALVASQYGWSGNMERIMKAQAYQTGKDISTNYYASQKKTFEINPRHPLIRDMLRRIKEDEDDKTVLDLAVVLFETATLRSGYLLPDTKAYGDRIERMLRLSLNIDPDAKVEEEPEEEPEETAEDTTEDTEQDEDEEMDVGTDEEEETAKESTAEYPYDVPDYA
Interaction (binding) with PCSK9 by co-immunoprecipitation (PCSK9-V5): interacts in complex with PCSK9
Interaction (binding) with PCSK9 by co-immunoprecipitation (PCSK9-V5; listed as SEQ. ID NO. 66): specifically binds to PCSK9
Block of LDLR degradation induced by overexpression of PCSK9 [3]: significantly block

Reference: patent US11529390B2, “PCSK9 inhibitory polypolypeptides and methods of use” (INSTITUT DE CARDIOLOGIE DE MONTREAL, priority 2015, dated 2022)
